From the DeepSol protein solubility set come the findings set out here.

This data set is described as follows: soluble on expression in E. coli; label from the status in PepcDB or PDB records.
For “MSLKRTITPVHEVQTEWVHLHYAESSIFKEVYGFVGTQGTVNLEGVRYTPVGRPSKTLLVFMHPASTLQLLPMPRELARHGAHVLCAGSRYQRNDSALIMENVVVDLGAYIRHAKEVWKYEKVVLVGWSGGGSLSLLYQSQAENPTISTTPAGDPCSIKQAGLMPADAFIFQAAHTGRARMLSEWIDPSVLDENDPDRIDPGLNLYATTCRPPYSADFLAAFRAGQRARLRRRTAWVKETLETLRRKGGQEVERGFVTHRTMADPRFLDPTIEPNDRPIGRCFMGIPETVNNGPVGIARFSTLRAWLSQWSPDDSNADGVTCAKSLTVPFLAIEHSADDAVPQSHVRQVFEAASATDKSMTVLQGATHYFLGQPEMLQQAATICLDWLAERGLHDEGHHHHHH”, the “soluble on expression in E. coli” value is listed as “soluble”. For “MEKDKQQLSVEVARLYYQSDYSQQEIANKLNISRPTISRLLKYAKEKGFVQISIADPFADLDNVGNLLKEKYNLLEAHVVFSPVPEYATITEYISKYAAEYMEKTVKNGDIVGVSWGMTMYEIARKIVPQHVKGVEVVQLKGGISHSSVNTYANETIALFADAFQTTPRNLPLPVIFDNAVTKELVEQDRHIHHIIEMGKQANIAIFTVGTVRDEALLFRLGYFDKDETNLLKKQSVGDICSRFFDGDGNISSEEINKRTIGIELEELKLKKRSILVAGGNRKIKAIDGALRGGYANVLIIDQHTAKELLHYQKG”, the “soluble on expression in E. coli” value is listed as “not soluble”. “MGSDKIHHHHHHLADVIYQAQPPLEFIPPAFNPLFLRFVHLLLPSWINWQTPITQIEADNVEVLVDLYRQFQEGKIRFMLAFRHPKTDDPFCLAYLLSQLVPKIARSQGTTLQLPIHAHFIYDRGIPLWAGSYVGWIASRLGGTPIQRGKADWTGLRSARDLFANGKFPMAAAPEGATNGLSENISPLEPGIAQLGFWCAEDLHKAERPEQVLIVPVGIKYSYVDAPWDAIANLLSELEAASGLPVNSAENASIESLYPRLLALAEHLLLLMEEFYTRFYHQKLPDSKIVNGQIPDRNEALAVRLQALLNAALLISEQYFNLQSKGSLSDRCRRVEQAGWNYIFREEFKDVKGVSAVERALGDRVAEEANARMWHMRLVESFVAVSGNYIRENPTVERFAETTLILWQMIAKIKGDKGVQRPQLGKQKVKITVGEPISISEHYPAYKENRLGARQAVADVTNDLQHALEGLI”: the “soluble on expression in E. coli” value is recorded as “not soluble”. For “MGSSHHHHHHGKTIFVIVPTNEEQVAFLEALAKQDELNFDWQNPPTEPGQPVVILIPSDMVEWFLEMLKAKGIPFTVYVEEGGSENLYFQGGGGGGRTGFNTAYSRCTYLVMMGEYKQLLEPGTFPSNDRLPPHLRLDKLSYLDLRDTEIALPPVIDVSLSNRDQVRQLEGQLPSTERSDLHVHFGPIKSQTIIMTPSSNERYVRRRLGLSEKDRKNLEAESQQAFAQARS” the value was “soluble”.

Turning to “MGSDKIHHHHHHMTVPPRVSAGEVFQHFRGTSPLTRARLSALTGLSRAATTDRMRTLASRGLIGPANEAPSTGGRPSAQFRLMPNSGAVMSVLLGASEAKVQAFDLSGQPLSAAKPVETVRGGYAAILDSCLASAYSLLDSMDDISGQLVATGVVLDEGAPDLDWPEYFAGRPVVVDSALGAMATAEALSRTPRPQNMLFLDVGKTIGCAVLVHGRTMGGFRTSKEAFGHTPGKGTPTLPCACGIMNCLQAIAGEEAIIAGLSSDLADEPDAISGAVRRSDAAAVSALRQAGRDIGDTLLGSIHLLQPEFITVRTRWPGAADFLLAGLREAIYASGVPAVTENLVLASSTTGSPATGIALRALDAGLAVESVDRLLSAPPNLSGQRNYWPAPLKSIDRQRHAS”, the “soluble on expression in E. coli” value is recorded as “not soluble”. For “MSLRDTVLVVDDEPDSLRFLADTLEGAGIRVLVAISGDAALDVLQHVEPDLILMDGVMPGRSGFETTACIKARPELAHVPVVFMTGLHDDEHVVRGFEVGGVDYLRKPVNVQELLARVRVHVGNARAIQAGAAGLDATGRLMMATDLQGGLLWCTPLAERAIARACPGWSRDAGALPDALREPVRKMLGRGAAQSGSVKVEQVDGTMELVVIAQYRGQEVLIRVNELNPKADIALLQQKLGLTDREAEVLLWTSYGKSNATISEVLAISPRTVQKHLERIYEKLGIETRAAAAAVAIKALGNEGHHHHHH” the value was “soluble”; for “MSTAETAVAPVDYRTDPSQYKHWKLSFNGPVATLGIDIAEDGGIRDGYKLKLNSYDLGVDIELHDAIQRIRFEHPEVRTVVLTSLKDRVFCSGANIFMLGLSTHAWKVNFCKFTNETRNGLEDSSRHSGLKFLAAVNGACAGGGYELALACDEIYLVDDRSSSVSLPEVPLLGVLPGTGGLTRVTDKRKVRHDRADIFCTVVEGVRGERAKAWRLVDEVVKPNQFDQAIQARALELAAQSDRPAHAQGVPLTRIERTDREDGLTYKTLDVTIDRAKRIATFTAKAPQTEPPASIDAIVAAGANWWPLKFAREFDDAILSMRTNELAVGTWVFRTEGDARHLLAADASLMQHKDHWFVRETIGLLRRTLARIDVSSRSLFALIEPGSCFAGTFAELAFAADRTYMAALPANEDEEPAITLSEVNFGLYPMVTHQSRLARRFYEETEPLDAVRSRIGQAIKPVEAERLGLVTASPDDIDWADEIRIALEERAAMSPDALTGLEANLRFNGPETMETRIFGRLTAWQNWIFNRPNAVGEKGALKVYGKGSKAQFDVSRV”, “soluble”. For the sequence “MSSKPRHDWFQSETDVTLTILKRGVPLDDCSVSLSDNNTLTVKQCDEILFYGQLSGQVKKDDLTVKCTAAKVEVRLPKFARNERWASLLKDGQGVAASVQSVSPNPESAPTTTVKKNWDAIEKQAVKEEEDESLEGDAAVNKMFRKMYNDASDDVRRAMMKSYSESNGTVLSTNWSEIGQKKTECQPPACMEYKEYEK”, the “soluble on expression in E. coli” value is on record as “not soluble”. Regarding “MGSDKIHHHHHHMSNLSLDFSHNEFQPLAARMRPATLAQYIGQQHLLGAGKPLPRAIEAGQLHSMILWGPPGTGKTTLAELIGHYGQADVERISAVTSGIKEIREAIERARQNRNAGRRTILFVDEVHRFNKSQQDAFLPHIEDGTITFIGATTENPSFELNSALLSRARVYLLKALMAEDIEQVLLQAMSDSERGYGGLNIVLPAETGRMLAELVNGDARRALNSLEMMADMAEIDAQGMRILTPALLNEIAGERSARFDNKGDRYYDLISALHKSVRGSAPDAALYWYARIITAGGDPLYVARRLLAIASEDVGNADPRAMQVAISAWDCFTRVGPAEGERAIAQAIVYLACAPKSNAVYSAFKAAMQDAREKPDYDVPEHLCNAPTRLMKEMGLGAEYRYAHNEPNAYAAGESYFPPEMADTHYYAPTSRGLEGKIGEKLAWLATQDQNSPTKRYR”, the “soluble on expression in E. coli” value is on record as “not soluble”.

Consider “MGSDKIHHHHHHMSERLDENFSRAIDLMLACTGKIIISGMGKSGIIGQKIAATLSSTGTTAIFLHPAEAAHGDLGVVSEGDTVICLSKSGMTEELNFILPALRERKATIIAFTGNPRSYLAMNADVVLDTGVEQEACPYDLAPTSSTTAMLAMGDALAICLMKKKNFTDQEFALTHPKGSLGKQLTMRVGDVMATGDALPVVSEDAMLSDLILEMTSKRYGVSGVVDAEGKLTGIFTDGDLRRLVQTGESFLDKKAVEVMTPNPKTVAPDMKAKACLELLETHRITQLMVCDEKRCPVGIVHIHDLVTLGL”, for which the “soluble on expression in E. coli” value is given as “not soluble”. For “MSSSSPNSSRSEAVNGRVVVPTGGSRRENSGPARGPAGFSATVLPCDEATKAAFAKDWKDLEQENLSSADYYFNSYAHFGIHEEMIKDSVRTGCYQRAICQNAHLFANKVVLDVGSGTGILSLFAAKAGAKHVYGIECSEIVNIARKIVKENDMEDKVTFVQGKAEEVSLPVEKVDIIISEWMGYFLLYESMLDTVLFCRDKWLKPGGMIFPDKAALYVAAIEDADYKEEKIGYWGNVYGFNFSCVRRCVMEEPIVDTVDENAVSTTSCCVLKLDLLTCTKEDLDFCAPYEITLRRKDFLHAFIAWFDVWFSHCHKPVVLSTGPHCRYTHWKQTVFYMEDVLVADVGDKVEGMIAVKKSQKNPRDLDIKISYTFNPPHAPAAIENTQFYRLR” the value was “soluble”; for “MKRIAFVGSVGAGKTTLFNALQGNYTLARKTLAVEFNDKGDIDTPGEYFSHPRWYHALITTLQDVDMLIYVHGANDPESRLPAGLLDIGVSKRQIAVISKTDMPDADVAATRKLLLETGFEEPIFELNSHDPQSVQQLVDYLASLTKQEEAGEKTHHSELEHHHHHH”, “soluble”; for “MPDRLQLLEERLVVNKDRFKAGSVQIGKRIETRQETVSVPLQREEVVIERHAVTDGRAVEGAVLGEGHQTMSVDLEAERANISKQAYVTEEVSVGKRAVTETQQVTETVGREVLDVNQTGDVRLEHHHHHH”, “not soluble”. As for “MGSDKIHHHHHHMMQSAAINRRSFVKAAGLGFLATLTPRSLMALERADAVYASGIRAADGSFAIATVTERGEIVDQVALPARAHGIAFSASTGKTVAFARRPGTYAMIFDPWNKSEPIVISSREDRHFYGHGAFSPDGRLLYASENDFDGNRGMIGLYDATDRFTRIGEFETYGIGPHDMTVSDDGRLLIVANGGIETHPDFGRTKLNLGEMQPSLALIDAATGALVEKHVLPAEWAELSTRHVDLDGAGRIWFACQYEGHRKDLPPLVGHFAKGEDLSFIDLPEETTRRLANYVGAIAVNRSEGLVGITSPKGGASVTIDARTGKMLAETSVPDAAGIAPARNGFAVSSYDGDFLSTRSDVAWDQHIVRI”, the “soluble on expression in E. coli” value is listed as “not soluble”. To “GPGSMTRRNAMSDNTTSTSSVTPERYPFCIVWTDIPLVSWLFPFVGHVGICDSTGRIFDFEGSYCIGVDHMLFGNPVKYWDISAMYVPSSRFPPGGLLSGDVEERRRRETEEYDRALSGVTTRFRKTQTYNFFTNNCHSYVASVLEEMTNGPRRPWNMFWIAWGLAIHGRSLLKSPSSLPRYRRPLCDRRCTLGLTRSK” belongs “not soluble”; to “SLSIDEIKQLIELIDESTLDEFELETKDSKILLKKHKTVVATAVQEAPIAVTPAQTAPVTPAAAPQVEASTAEDVNLEVITSPMVGTFYASASPEDANFVSVGSKVSAQSVVCIVEAMKLFNEITADIDGEIAEILVSSGELVEFGQPLFKVRKK”, “soluble”; to “GPGSMSAAGVTVRRAEREDTQRMYDLIMELAIYERAPECVVVSKAQMEEEGFGERPLWSAFVAELQETNDVKPRVIGMALYYYRYSTWRGRMLYLEDFIVTESHRGIGAGKMLFERVLQQAKEEGCHGMVWQALDWNAPAIEFYKKYDAEIDPGWVNCMLKF”, “soluble”. To “SEQDKWKTSAQLWQNLDEETIRALWNVQGQLNKLEEERDKAIEEIERQFLESSRPLYEERQRICSLVDRFWFHVLCSHPYTGTKMTNKDRTVLQHLEDVFFTEIENCMQGYQINLKFSPNDYIEDEIIWKQVKYVDDLQGWKGAASGIRWKRQDSIIDPDNEFFSDGEEVLQLTEKGNTVAKLQRKARSLLSWFETEDVTDNLKDVFYEDIWQHCIDWFFARDNASIEEFPVTMEGEQEDIVMID” belongs “soluble”. To “MAHHHHHHMFSPVYEDVSGLFGHPMPISGFGPSTELQFPQTSYMTTTTNAPQTPTQQQQQQLAGRATVYSLVDASGVQLHRQAAPPQQIPMSSVPFGAFDGASIVPYEVFMQHQQQQQLAAAGKPTAVHAQDGVKYYLSSSTGAPVMASAGPAATTQANIMQMQQHGGTLYTLESNGTTTALTSTPPAGGLFSGAAAANGAPPSGEYPFYAAATGFLSSGPLGMAPATVGSASVTPYAIQGHMPSASPRARGAVNRSPAATIAGNQHHSNSGNNSSSASTRRENQATLHEM” belongs “not soluble”. Consider “MSLADRLTIGEFSRITHLSIRMLRRYHEQDLLVPAEVDPDTGYRYYSPAQIRPALTVRRFRDLDLPLADLRRFLAAESADGPDDGTAQQVVAAHLRRLEDRLGRTQRAVEVLRELLDPEAERAVTLEELPARRVLAVTLDVPEGAGLDWYDEAMCDVDSAAGERSVLPPGGRYEHTLFTEGHGRATVYVPFEAPLPPEMPGRVRELHLPRRTAAVATHQGRHDDLDLTYGAVGSFAARNDLRSQDLVEEVYLVGPRDTDRPELWRTLVAWLIAPENEGHHHHHH”, for which the “soluble on expression in E. coli” value is given as “soluble”.
